Results published in IntAct's records for PubMed 31515488.

B1: Angiomotin (Homo sapiens), Q4VCS5 (parent)
chain: MRNSEEQPSGGTTVLQRLLQEQLRYGNPSENRSLLAIHQQATGNGPPFPSGSGNPGPQSDVLSPQDHHQQLVAHAARQEPQGQEIQSENLIMEKQLSPRMQNNEELPTYEEAKVQSQYFRGQQHASVGAAFYVTGVTNQKMRTEGRPSVQRLNPGKMHQDEGLRDLKQGHVRSLSERLMQMSLATSGVKAHPPVTSAPLSPPQPNDLYKNPTSSSEFYKAQGPLPNQHSLKGMEHRGPPPEYPFKGMPPQSVVCKPQEPGHFYSEHRLNQPGRTEGQLMRYQHPPEYGAARPAQDISLPLSARNSQPHSPTSSLTSGGSLPLLQSPPSTRLSPARHPLVPNQGDHSAHLPRPQQHFLPNQAHQGDHYRLSQPGLSQQQQQQQQQHHHHHHHQQQQQQQPQQQPGEAYSAMPRAQPSSASYQPVPADPFAIVSRAQQMVEILSDENRNLRQELEGCYEKVARLQKVETEIQRVSEAYENLVKSSSKREALEKAMRNKLEGEIRRMHDFNRDLRERLETANKQLAEKEYEGSEDTRKTISQLFAKNKESQREKEKLEAELATARSTNEDQRRHIEIRDQALSNAQAKVVKLEEELKKKQVYVDKVEKMQQALVQLQAACEKREQLEHRLRTRLERELESLRIQQRQGNCQPTNVSEYNAAALMELLREKEERILALEADMTKWEQKYLEENVMRHFALDAAATVAAQRDTTVISHSPNTSYDTALEARIQKEEEEILMANKRCLDMEGRIKTLHAQIIEKDAMIKVLQQRSRKEPSKTEQLSCMRPAKSLMSISNAGSGLLSHSSTLTGSPIMEEKRDDKSWKGSLGILLGGDYRAEYVPSTPSPVPPSTPLLSAHSKTGSRDCSTQTERGTESNKTAAVAPISVPAPVAAAATAAAITATAATITTTMVAAAPVAVAAAAAPAAAAAPSPATAAATAAAVSPAAAGQIPAAASVASAAAVAPSAAAAAAVQVAPAAPAPVPAPALVPVPAPAAAQASAPAQTQAPTSAPAVAPTPAPTPTPAVAQAEVPASPATGPGPHRLSIPSLTCNPDKTDGPVFHSNTLERKTPIQILGQEPDAEMVEYLI
B2: Endophilin-B2 (Homo sapiens), Q9NR46 (parent)
chain: MDFNMKKLASDAGIFFTRAVQFTEEKFGQAEKTELDAHFENLLARADSTKNWTEKILRQTEVLLQPNPSARVEEFLYEKLDRKVPSRVTNGELLAQYMADAASELGPTTPYGKTLIKVAEAEKQLGAAERDFIHTASISFLTPLRNFLEGDWKTISKERRLLQNRRLDLDACKARLKKAKAAEAKATTVPDFQETRPRNYILSASASALWNDEVDKAEQELRVAQTEFDRQAEVTRLLLEGISSTHVNHLRCLHEFVKSQTTYYAQCYRHMLDLQKQLGRFPGTFVGTTEPASPPLSSTSPTTAAATMPVVPSVASLAPPGEASLCLEEVAPPASGTRKARVLYDYEAADSSELALLADELITVYSLPGMDPDWLIGERGNKKGKVPVTYLELLS
partner: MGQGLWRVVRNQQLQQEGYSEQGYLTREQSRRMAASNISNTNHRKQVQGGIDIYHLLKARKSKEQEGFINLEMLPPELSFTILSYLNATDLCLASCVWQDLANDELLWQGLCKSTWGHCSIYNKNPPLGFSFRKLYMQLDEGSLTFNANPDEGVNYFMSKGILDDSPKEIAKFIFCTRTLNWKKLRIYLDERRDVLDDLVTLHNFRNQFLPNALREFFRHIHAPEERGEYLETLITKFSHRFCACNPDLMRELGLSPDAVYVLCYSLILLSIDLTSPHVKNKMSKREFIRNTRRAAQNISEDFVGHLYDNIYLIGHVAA
B3: E3 ubiquitin-protein ligase CBL-B (Homo sapiens), Q13191 (parent)
chain: MANSMNGRNPGGRGGNPRKGRILGIIDAIQDAVGPPKQAAADRRTVEKTWKLMDKVVRLCQNPKLQLKNSPPYILDILPDTYQHLRLILSKYDDNQKLAQLSENEYFKIYIDSLMKKSKRAIRLFKEGKERMYEEQSQDRRNLTKLSLIFSHMLAEIKAIFPNGQFQGDNFRITKADAAEFWRKFFGDKTIVPWKVFRQCLHEVHQISSGLEAMALKSTIDLTCNDYISVFEFDIFTRLFQPWGSILRNWNFLAVTHPGYMAFLTYDEVKARLQKYSTKPGSYIFRLSCTRLGQWAIGYVTGDGNILQTIPHNKPLFQALIDGSREGFYLYPDGRSYNPDLTGLCEPTPHDHIKVTQEQYELYCEMGSTFQLCKICAENDKDVKIEPCGHLMCTSCLTAWQESDGQGCPFCRCEIKGTEPIIVDPFDPRDEGSRCCSIIDPFGMPMLDLDDDDDREESLMMNRLANVRKCTDRQNSPVTSPGSSPLAQRRKPQPDPLQIPHLSLPPVPPRLDLIQKGIVRSPCGSPTGSPKSSPCMVRKQDKPLPAPPPPLRDPPPPPPERPPPIPPDNRLSRHIHHVESVPSRDPPMPLEAWCPRDVFGTNQLVGCRLLGEGSPKPGITASSNVNGRHSRVGSDPVLMRKHRRHDLPLEGAKVFSNGHLGSEEYDVPPRLSPPPPVTTLLPSIKCTGPLANSLSEKTRDPVEEDDDEYKIPSSHPVSLNSQPSHCHNVKPPVRSCDNGHCMLNGTHGPSSEKKSNIPDLSIYLKGDVFDSASDPVPLPPARPPTRDNPKHGSSLNRTPSDYDLLIPPLGEDAFDALPPSLPPPPPPARHSLIEHSKPPGSSSRPSSGQDLFLLPSDPFVDLASGQVPLPPARRLPGENVKTNRTSQDYDQLPSCSDGSQAPARPPKPRPRRTAPEIHHRKPHGPEAALENVDAKIAKLMGEGYAFEEVKRALEIAQNNVEVARSILREFAFPPPVSPRLNL
B4: Membrane protein FAM174A (Homo sapiens), Q8TBP5 (parent)
chain: MKASQCCCCLSHLLASVLLLLLLPELSGPLAVLLQAAEAAPGLGPPDPRPRTLPPLPPGPTPAQQPGRGLAEAAGPRGSEGGNGSNPVAGLETDDHGGKAGEGSVGGGLAVSPNPGDKPMTQRALTVLMVVSGAVLVYFVVRTVRMRRRNRKTRRYGVLDTNIENMELTPLEQDDEDDDNTLFDANHPRR
partner: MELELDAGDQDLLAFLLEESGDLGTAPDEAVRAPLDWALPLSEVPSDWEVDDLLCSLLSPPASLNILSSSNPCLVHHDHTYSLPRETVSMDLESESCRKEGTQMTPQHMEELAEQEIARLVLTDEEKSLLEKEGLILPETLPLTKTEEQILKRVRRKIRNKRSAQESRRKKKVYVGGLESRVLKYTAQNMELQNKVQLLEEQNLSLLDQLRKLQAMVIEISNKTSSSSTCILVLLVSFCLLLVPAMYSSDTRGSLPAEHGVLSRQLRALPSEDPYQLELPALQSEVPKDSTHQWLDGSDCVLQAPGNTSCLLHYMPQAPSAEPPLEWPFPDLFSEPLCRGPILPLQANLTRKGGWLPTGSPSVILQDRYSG
B5: Ribosome-recycling factor, mitochondrial (Homo sapiens), Q96E11 (parent)
chain: MALGLKCFRMVHPTFRNYLAASIRPVSEVTLKTVHERQHGHRQYMAYSAVPVRHFATKKAKAKGKGQSQTRVNINAALVEDIINLEEVNEEMKSVIEALKDNFNKTLNIRTSPGSLDKIAVVTADGKLALNQISQISMKSPQLILVNMASFPECTAAAIKAIRESGMNLNPEVEGTLIRVPIPQVTREHREMLVKLAKQNTNKAKDSLRKVRTNSMNKLKKSKDTVSEDTIRLIEKQISQMADDTVAELDRHLAVKTKELLG
partner: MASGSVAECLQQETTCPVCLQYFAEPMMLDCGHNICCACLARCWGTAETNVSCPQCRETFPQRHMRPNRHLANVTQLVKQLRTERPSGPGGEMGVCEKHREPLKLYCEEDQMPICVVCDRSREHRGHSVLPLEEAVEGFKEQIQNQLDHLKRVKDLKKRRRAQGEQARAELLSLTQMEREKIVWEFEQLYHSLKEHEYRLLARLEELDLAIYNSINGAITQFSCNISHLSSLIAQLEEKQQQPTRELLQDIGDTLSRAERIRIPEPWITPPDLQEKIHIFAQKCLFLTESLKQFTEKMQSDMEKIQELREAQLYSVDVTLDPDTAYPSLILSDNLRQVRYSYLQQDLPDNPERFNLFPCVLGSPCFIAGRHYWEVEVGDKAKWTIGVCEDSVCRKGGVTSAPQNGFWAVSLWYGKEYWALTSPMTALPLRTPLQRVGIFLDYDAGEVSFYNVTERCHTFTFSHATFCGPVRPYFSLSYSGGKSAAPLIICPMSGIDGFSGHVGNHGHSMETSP

Variants of: B1
Conditions: with maga4_human MAGEA4, P43358
Sequence of maga4_human MAGEA4, P43358 (P43358 whole entry): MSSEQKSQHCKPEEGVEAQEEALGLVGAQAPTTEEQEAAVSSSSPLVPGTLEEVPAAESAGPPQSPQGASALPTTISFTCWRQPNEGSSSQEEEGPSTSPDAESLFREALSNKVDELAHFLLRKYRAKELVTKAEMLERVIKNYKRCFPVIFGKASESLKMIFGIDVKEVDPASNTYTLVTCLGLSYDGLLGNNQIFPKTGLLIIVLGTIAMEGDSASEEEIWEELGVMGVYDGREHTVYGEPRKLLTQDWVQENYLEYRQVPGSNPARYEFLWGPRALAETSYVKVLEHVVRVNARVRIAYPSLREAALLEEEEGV

effect of a mutation on the interaction | Variant
with no effect | T899A

Variants of: B1
Conditions: with UNC119, Q13432

effect of a mutation on the interaction | Variant
with no effect | A556V

Variants of: B1
Conditions: with KRT15, P19012
Sequence of KRT15, P19012 (P19012 whole entry): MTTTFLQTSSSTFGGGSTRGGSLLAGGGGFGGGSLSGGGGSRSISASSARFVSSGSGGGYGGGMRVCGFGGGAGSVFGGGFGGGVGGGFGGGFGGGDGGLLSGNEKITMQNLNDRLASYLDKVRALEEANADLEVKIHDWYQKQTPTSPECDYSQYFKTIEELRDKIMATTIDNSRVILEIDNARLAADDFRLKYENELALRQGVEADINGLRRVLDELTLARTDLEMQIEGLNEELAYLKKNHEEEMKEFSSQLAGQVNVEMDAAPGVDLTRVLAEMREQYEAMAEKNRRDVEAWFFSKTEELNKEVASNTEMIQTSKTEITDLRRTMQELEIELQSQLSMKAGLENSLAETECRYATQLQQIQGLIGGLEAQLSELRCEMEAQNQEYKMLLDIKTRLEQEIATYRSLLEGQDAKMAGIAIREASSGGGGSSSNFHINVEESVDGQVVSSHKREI

effect of a mutation on the interaction | Variant
with no effect | A556V

Variants of: B2
Conditions: with fbx8_human FBXO8, Q9NRD0

effect of a mutation on the interaction | Variant
with no effect | MDFNMKKLASDAGIFFTRAVQFTEEKFGQAEKTELDAHFENLLARADSTKNWTEKILRQTEVLLQPNPSARVEEFLYEKLDRKVPSRVTNGELLAQYMADAASELGPTTPYGKTLIKVAEAEKQLGAAERDFIHTASISFLTPLRNFLEGDWKTISKERRLLQNRRLDLDACKARLKKAKAAEAKATTVPDFQETRPRNYILSASASALWNDEVDKAEQELRMAQTEFDRQAEVTRLLLEGISSTHVNHLRCLHEFVKSQTTYYAQCYRHMLDLQKQLGRFPGTFVGTTEPASPPLSSTSPTTAAATMPVVPSVASLAPPGEASLCLEEVAPPASGTRKARVLYDYEAADSSELALLADELITVYSLPGMDPDWLIGERGNKKGKVPVTYLELLS [V223M]

Variants of: B3
Conditions: with gors2_human GORASP2, Q9H8Y8

effect of a mutation on the interaction | Variant
with no effect | S622T

Variants of: B4
Conditions: with creb3_human CREB3, O43889

effect of a mutation on the interaction | Variant
with no effect | MKASQCCCCLSHLLASVLLLLLLPELSGPLAVLLQAAEAAPGLGPPDPRPRTLPPLPPGPTPAQQPGRGLAEAAGPRGSEGGNGSNPVAGLETDGHGGKAGEGSVGGGLAVSPNPGDKPMTQRALTVLMVVSGAVLVYFVVRTVRMRRRNRKTRRYGVLDTNIENMELTPLEQDDEDDDNTLFDANHPRR [D95G]

Variants of: B5
Conditions: with tri27_human TRIM27, P14373

effect of a mutation on the interaction | Variant
with no effect | MALGLKCFRMVHPTFRNYLAASIRPVSEVTLKTVHERQHGHRQYMAYSAVPVRHFATKKAKAKGKGQSQTRVNINAALVEDIINLEEVNEEMKSVIEALKDNFNKTLNIRTSPGSLDKIAVVTADGKLALNQISQISMKSPQLILVNMASFPECTAAAIKAIRESGMNLNPEVEGTLIRVPIPQVTREHREMLVKLAKQNTNKAKDSLRKVRTNSVNKLKKSKDTVSEDTIRLIEKQISQMADDTVAELDRHLAVKTKELLG [M216V]
